In the RNAGym collection of RNA variant scans (doi:10.1073/pnas.2313332121):

B1: TPR t1 (parent)
chain: GACCAAUCUGCCCUCAGAGCUCGAGAACAUCUUCGGAUGCAGAGGAGGCAGGCUUCGGUGGCGCGAUAGCGCCAACGUCCUCAACCUCCAAUGCAUCCCACCACAUGAUGAUGCCUGAAGAGCCUUGGUUUUUUG

Variants of: B1
Assay: polymerase ribozyme fitness, log enrichment relative to wild type (log ratio); higher = more active; in vitro selection for triplet polymerase activity
Summary of the method: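 Each subunit of a heterodimeric triplet polymerase ribozyme was represented by a PCR-built, transcribed mutant library that underwent triplicate single-round in vitro selection with frozen incubation at −7 °C. Extended constructs were recovered by gel excision, streptavidin-bead capture and RT-PCR, and Illumina sequencing of input and output libraries kept genotypes with ≥10 input reads and ≥1 read per output. Fitness is the logarithm of genotype enrichment relative to wild-type enrichment, from inverse-variance-weighted replicate averages, with a logarithm base of 2.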

Variant | polymerase ribozyme fitness (log ratio)
C12U A121C | 2.05
C12U C13A A27G G93A | -5.78
C12U C13U A50U U78G U131C | -0.743
C12U C13U C40G C76A G77A U131C | -0.917
C12U C13U C79G | -1.13
C12U C13U C89U U133G | -0.318
C12U C15G G63U G120U | -0.846
C12U C15U G17A C64U A83C C85A G117U | -2.73
C12U C15U G45U G69C C82A C101U | -2.95
C12U C20U C22A G45U C70U A83U A118U | -6.7
C12U C22G G45A G71A C94U C99U | -4.76
C12U C22G U38A C79U G122A | -3.65
C12U C22U C28U C124A | -4.02
C12U C31G | -5.12
C12U C31G A37G G45U A50C G51U C102A G117U | -7.15
C12U C34A G71U U78G U125A | -3.95
C12U C34A U132A | -1.35
C12U C40G | -0.0831
C12U C40U G42C C80A C88G C102A A111G C123U U134G | -6.19
C12U C40U G69C A91U C101U A121C | -2.89
C12U C49A A50C A95C | -1.09
C12U C49G | -0.764
C12U C49G C97A A111U | -5.43
C12U C49G G113U C114A U129A | -4.7

Variant | polymerase ribozyme fitness (log ratio)
C12U C53G A90C | -1.61
C12U C53U C80G C82U A90G | -2.24
C12U C56A G63U C89U C124A | -4.63
C12U C56A G69A | -2.89
C12U C56U | 0.248
C12U C56U G69U U112G A119U | -2.27
C12U C62A C73U G77U | -3.65
C12U C62U C70G G93A | -5.44
C12U C64A | -5.62
C12U C64U | 0.0316
C12U C70U C80A C97U A121G U133A | -3.61
C12U C70U C97A | -5.44
C12U C70U G71A | -0.916
C12U C70U U129C | -0.46
C12U C72A C80U | -0.362
C12U C72G | 0.149
C12U C72U | -0.537
C12U C73A | 0.441
C12U C73A C104A | -0.305
C12U C73U | 0.0527
C12U C80G G128C U130C | -4.44
C12U C80U | -0.606
C12U C85G | -0.35
C12U C89G | -0.883

Variant | polymerase ribozyme fitness (log ratio)
C12U C89U A100C U133G | -1.42
C12U C94A | -0.148
C12U C94U | -0.204
C12U C94U U112C | 1.32
C12U C97U | -0.793
C12U C99A | -3.9
C12U C123U | 1.71
C12U G17C C97G C115G | -3.25
C12U G17U C28U G39A G42C C56U C70G U106A U109C U112C | -6.21
C12U G19A G45U | -2.71
C12U G19C C56U U81G C104A G117C | -5.9
C12U G19U A43U C64G A95C G117U | -7.83
C12U G19U A90C | -2.37
C12U G23A U130C | -5.34
C12U G35A C62U G117A | -6.59
C12U G35A G57C C88U | -4.97
C12U G36A A83C U106A U129C G135U | -1.4
C12U G39C C64U A84U | -0.905
C12U G39C G52C C53A C79A A119U | -1.3
C12U G42C C62A G120U U126C | -1.07
C12U G42U A84C U116A | -3.42
C12U G42U C70U U81C G120U | -1.9
C12U G44C C82G A103G G117C | -6.32
C12U G44U G47C C89A A90C U116A U131G | -3.02

Variant | polymerase ribozyme fitness (log ratio)
C12U G44U G110A | -2.1
C12U G45A | -1.24
C12U G45A U96C G110U G135A | -2.06
C12U G45U | -0.901
C12U G45U G77C | -0.677
C12U G47A | -0.468
C12U G47A C79U U87C | 0.112
C12U G47A U55A G61U C86U | -0.0107
C12U G47C G69U G107A | -4.81
C12U G48A U54G A121U U129G | 0.00313
C12U G48U | -0.505
C12U G51A C101U | -2.14
C12U G51A G71C C79U C101A | -5.68
C12U G52A G63C U112A G120A | -0.326
C12U G57C | 0.562
C12U G60C U109G | -4
C12U G61U A105U | -1.42
C12U G61U C88A | -0.482
C12U G61U U109G G120U | -4.29
C12U G63A C124G G127U | 1.79
C12U G63A U106G | -3.38
C12U G63U C70A C82A C115A G128A | -1.07
C12U G63U U78A C79U | 0.0353
C12U G65U | -4.93

Variant | polymerase ribozyme fitness (log ratio)
C12U G69A | -2
C12U G71A C94U | -1.26
C12U G71C | -0.564
C12U G71C C82G | -1.53
C12U G77C | 0.201
C12U G113A U125A | -0.67
C12U G120A | 1.63
C12U G120C | 2
C12U G135U | 0.000607
C12U U14A C40A A105C | -3.92
C12U U14A C40A C72U A105C | -4.37
C12U U14G U32C G51A C56U G57U G127A | -5.28
C12U U21A C62G C104U | -2.05
C12U U21G C88U | -2.37
C12U U33G C62G A105U U112G U125A | -6.16
C12U U38C G107A G117C C123A | -5.15
C12U U38G G63U | -1.77
C12U U54A C56A A91C C115U | -1.35
C12U U55C G71A A90G G113U | -2.97
C12U U78C G110U | -1.38
C12U U87C | 1.04
C12U U92G U96A | -2.63
C12U U112C | 1.26
C12U U130G | 0.00659

Variant | polymerase ribozyme fitness (log ratio)
C12U U133G | -0.256
C13A A16G G61A C79G G113C | -5.27
C13A A16U C101G | -4.02
C13A A27C C70U | -5.92
C13A A27C U129A | -5.35
C13A A29G C53U U106C | -5.28
C13A A29G C73G C79U U125G | -4.63
C13A A29G U32A G39A G120A U126A U130G U134C | -2.77
C13A A37C A118U | -1.38
C13A A43C G44A C72U C76U U126A | -5.92
C13A A46G U125G | -3.19
C13A A46U | -3.23
C13A A50U C72A | -3.71
C13A A75U U125A | -2.12
C13A A90G A95G U133G | -1.7
C13A A100U | -2.85
C13A A111C | -1.39
C13A A111U | -4.17
C13A A119U | 0.145
C13A C15U G47C C114A U130C | -6.45
C13A C20A | -3.84
C13A C20U C72U | -2.59
C13A C20U G42U G44A C102U G127C | -6.04
C13A C28G C49A A75U A103G G107U U112C | -6.59

Variant | polymerase ribozyme fitness (log ratio)
C13A C34A G69A U96A C115A | -7.14
C13A C40A | -2.4
C13A C40A C56U | -2.79
C13A C53A C115U A119U | 0.949
C13A C56G C89A A90U | -3.98
C13A C56U | -1.43
C13A C62A G120U | -1.17
C13A C62G | -2.67
C13A C62U C89A | -3.31
C13A C70A | -3.18
C13A C70G C123A | -2.2
C13A C72G C94A C124A | 0.278
C13A C72U | -1.96
C13A C76G | -2.51
C13A C86A | -3.09
C13A C94A C124A | 0.414
C13A C104U A118C C124A | -0.374
C13A C123G | -0.0402
C13A C123U | 0.793
C13A C124U U132A | -1.61
C13A G17C | -4.33
C13A G19A G52C C76G A118U C124A U133A | -4.56
C13A G23A A66G G69A U78C C85U A90U U96G C123U | -6.29
